Test: yeast display, Sf9 membrane polyspecificity reagent, FACS + sequencing; frameworks hold sequencing errors
Procedure, shortened: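 A synthetic nanobody library was expressed on Saccharomyces cerevisiae BJ5465 by galactose induction for 36–48 hours. The library was stained for 1 hour at 4 °C with 10% biotinylated, detergent-solubilized Sf9 membrane reagent and enriched with streptavidin microbeads before FACS. Low and high (top ~1%) gates were set on anti-HA fluorescence for expression and streptavidin fluorescence for reagent binding, and each polyreactivity label reflects the gate of origin.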

Row | Sequence | polyreactivity (PSR sort gate)
1 | QVQLVESGGGLVQAGGSLRLSCAASGSIFPVNVMGWYRQEPGKERELVARITSGGSTIYADSVKGRFTISRDNAKNTVYLQMNSLKPEDTAVYYCAARQYHWYLPSYWYRYDYWGQGTQVTVSS | high polyreactivity
2 | QVQLVESGGGLVQAGGSLRLSCAASGRTFPWYAMGWYRQAPGKERELVAAISWTGGSTYYADSVKGRFTISRDNAKNTVYLQMNSLKPEDTAVYYCAASPWYLKYEYWGQGTQVTVSS | low polyreactivity
3 | QVQLEDSGGGLVQAGGSLRLSCAASGSTISYYTMGWYRQAPGKERELVAAISSGGSTYADSVKGRFTISRDNAKNTVYLQMNSLKPDDTAVYYCAVDGFDYGPSQALDYWGPGTQVTVSS | low polyreactivity
4 | QVQLVESGGGLVQAGGSLRLSCAASGGTFYTNVMGWYRQAPGKERELVAAITRSGGSTHYADSVKGRFTISRDNAKNTVYLQMNSLKPEDTAVYYCAVGSPYYDGMDYWGQGTQVTVSS | low polyreactivity
5 | QVQLVESGGGLVQAGGSLRLSCAASGRTFIFNAMGWYRQAPGKERELVAAISSGGGTNYADSVKGRFTISRDNAKNTVYLQMNSLKPEVTAVYYCAADPRDHYSYVYDGYKYDYWGQGTQVTVSS | low polyreactivity
6 | QGQLVESGGGLVQAGGSLRLSCAASGSIFYINAMGWYRQAPGKERELVASISGGGGSTYYADSVKGRFTLSRDNAKNTVYLQMNSLKPEDTAVYYCNTVSRKDYDYWGQGTQVTVSS | high polyreactivity
7 | QVQLVESGGGLEQAGGSLRLSCAASGLIFRGYVMGWYRPAPGKERELVAAISRRGVNTYYADSVKGRFTISRDNSKNTVYLQMNSLKPEDTAVYYCAAETHVGWPAKFDYWGQGTQVTVSS | high polyreactivity
8 | QVQLVESGGGLVQAGGSLRLSCAASGFILDYNAMGWYRQAPGKERELVAAITNGGITYYADSVKGRFTISRDNAQNTVYLQMNSLKPEDTAVYYCAADNDTDHSSATYGYDYWGQGTQVTVSS | low polyreactivity
9 | QVQLVESGGGLVQAGGSLRLSCAASGFTFYLYTMGWYRQAPGKERELVATITSDGGTNYADSVKGRFTISRDNAKNTVYLQMNSLKPEDTAVYYCNAASRRGSRKQAKYDFWGQGTQVTVSS | low polyreactivity
10 | QVQLVESGGGLVQAGGSLRLSCAASGFIFYKNAMGWYRQAPGKERQLVAAINFSTGRTYYADSVKGRFTISRDNAKNTVYLQMNSLKPEDTAVYYCASKSANPRKYYYWGQGTQVTVSS | high polyreactivity
11 | QVQLVESGGGLVQAGGSLRLSCAASVSIFYRNARGWYRQEPGKEREMVAAISSSVSSTYYADSVKGRFTISRDNAKNTVYLQMNSLKPEDTAVYYCAARRFQRGGDYFYRYLYDYWGQGTQVTVSS | low polyreactivity
12 | QVQLVESRGCLVQAGGSLRLSCAASGRTFYRYVMGWYRQAPGKEMELVAAISEGGGSTFYADSVKGRFTISRDNAKNTDYLQMNSLKPEDTAVYYCAADYYVRGGFFRYDYWGQGTQVTVSS | low polyreactivity
13 | QVQLVESGGGLVQAGGSLRLSCAPSGSTFYYYAMGWYRQAPGKERELVAAITYRGGTYYADSVKGRFTISRDNAKNTVYLQMNSLKPEDTAVYYCAAPLSRIMDYWGQGTQVTVSS | high polyreactivity
14 | QVQLVESGGGLVQAGGSLRLSCAASGYTFYEYAMGWYRQAPGKERELGAAIRGSGGGTYYADSVKGRFTISRDNAKNTVYLQMNSLKPEDTAVYYCAVKYAYPYAGVSAIRYYYWGQGTQVTVSS | low polyreactivity
15 | QVQLVESGGGLVQAGGSLRLSCAASGRIFYAYAMGWYRQAPGKERELVAAISYIAGITYYADSVKGRFTISRDNAKNTVYLQMNSLIPEDTAVYYCAADDMVTGPLDFWGQGTQVTVSS | low polyreactivity
16 | QVQLVESGGGLVQAGGSLRLSCAASGFIFVDNAMGWYRQAPGKERELVAAITYRGGSTYYADSVKGRFTISRDNAKNTVYLQMNSLKPEDTAVYYCNADYGDTFEYDYWGQGTQVTVSS | low polyreactivity
17 | QVQLVETGGGLVQAGGSLRLSCAASGSTFWRNSMGWYRHAPGKEREFVASISWSGGGTYYADSVKGRFTISRDNAKNTVYLQMNILKPEDTAVYYCAATPYWSYWYGNGDYDYWGQGTQVTVSS | low polyreactivity
18 | QVQLVESGGGLVQAGGSLRLSCAASGFIFRVYAMGWYRQAPGKERELVAAITRNGGSTYYADSVKGRFTISRDNAKNTVYLQMNSLKPEDTAVYYCATVYSFGQNRDYWGQGTQVTVSS | high polyreactivity
19 | QVQLVESGGGLVQAGGSLRLTCAASGRTFYFYTMGWYRQAPGKERELVATITWRGGRTYYADSVKGRFTITRDNAKNTVYLQMNSLKPEDTAVYYCNADYASYRHRMDYWGQGTQVTVSS | high polyreactivity
20 | QVQLVESGGGLVQAGGSLRLSCAASGSTFPKYAMGWYRQAPGKERELVASISVTTGSTYYADSVKGRFTISRDNAKNTVYLQMNSLKPEDTAVYYCAARRGWGDDYWGQGTQVTVSS | high polyreactivity
21 | QVQLVESRGGLVQAGGSLRLSCAASGRIFASYTMGWYRQAHGKERELVAAISWRGDGTYYADSVKGRFTISRDNAKNTVYLQMNSLKPEDTAVYYCAADYVYYYHEYDYWGQGTQVTVSS | low polyreactivity
22 | QVQLVESGGGLVQAGGSLRLSCAASGSTFSYYAMGWYRQAPGKERELVAVISWSGGSTYYADSVKGRFTISRDNAKNTVYLQMNSLKPEDTAVYYCAARGYVRWYNRYDYWGQGTQVTVSS | low polyreactivity

Row | Sequence | polyreactivity (PSR sort gate)
23 | QVQLVESGGGLVQAGGSLSLSCAASGRIFAYYAMGWYRQAPGKERELVAGISQRGSRTYYADSVKGRFTISRDNGKNTVYLQMNSLKPEDTAVYYCAARDRRSVTMDYWGQGTQVTVSS | high polyreactivity
24 | QVQLVESGGGLVQAGGSLRLSCAASGSTFRSNAMGWYRQAPGKERELVAAIRYSGARTYYADSVKGRFTISRDNAKNTVYLQMNSLKPEDTAVYYCAATLYTRTYSWMDYWGQGTQVTVSS | high polyreactivity
25 | QVQLVESGGGLVQAGGSLRLICAASGFIFVYYVMGWYRQAPGKERELVAAITQSGGSTYYADSVKGRFTISRDNAKNTVYLQMNSLKPEDTAVYYCAAYRRTTGGGYDYWGQGTQVTVSS | high polyreactivity
26 | QVQLVESGGVLVQAGGSLRLRCAASGRIFSRYTMGWYRQAPGKERELVAAIRNTGSTNYADSVKGRFTISRDNAKNTVYLQMNSLKPEDTAVYYCNARTAYGAYHYYYPQRMDYWGQGTQVTVSS | high polyreactivity
27 | QVPLVESGGGLVQAGGSLRLSCAASGRIFGTNTMGWYRQAPGKEREWVAAITWSGGSTYYADSGTGRFTISRDNAKNPVYLQMNSLNPEDTAGYYCNVESAYAYHGPVDYWGQGTQVTVSS | low polyreactivity
28 | QVQLVESGGGLVQAGGSLRLSCAASGSIFAYNAMGRYRQAPGKEREYVAAISQSGGRTYYADSVKGRFTISRDTSKNTVYLQMNSLKPEDTAVYYCATDGIRLTRHRDYDYWGQGTQVTVSS | low polyreactivity
29 | QVQLVESGGGLVQAGGSLRLSCAASGRTFGFYAMGWDRQAPGKERELVAVITWSVTSTYYADSVKGRFTISRDNAKNTVYLQMNSLKPEDTAVYYCAAEYVVGASSVRDSLDYGYWGQGTQVTVSS | high polyreactivity
30 | QVQLVESGGGLVQAGGSLRLSCASSGYIIIIYAMGWYRQAPGKERELVAAINRRGGSTYYADSVKGRFTISRDNAKNTVYLQMNSLKREDTEVYYCNAYPYFSRGPHLYDYWGQGTQVTGSS | high polyreactivity
31 | QVQLVESGGGLVQAGGSLRLSCAASGRTFGTYAMGWYRQAPGKQRELVAAISSGGSTYADSVKGRFTISRDNAKNTVYLQMNSLKPEDTAVYYCNADYRARNYHYYPRRFKYYYWGQGTQVTVSS | high polyreactivity
32 | QVQLVESGGGLVQAGGSLRLSCAASGSTFYTYAMGWSRPAPGKERELVAAINWIGDSTYYADSVKGRFTISRDNAKNTVYLQMNSLKPEDTAVYYCAADFTLGSRTEGLHMDYWGQGTQVTVSS | high polyreactivity
33 | QVQLVESGGGLVQAGGSLRLSCADSGIIFWRYAMGWYRQAPGKERELVATITSGGSTDYADSVKGRFTISRDNAKNTVYLQMNSLKPEDTAVYYCAALGYATGYWRYYYWGQGTQVTVSS | low polyreactivity
34 | QVQLVESGGGLVQAGGSLRLSCAASGRTFSFYDMGWYRQAPGKERELVAAINSGSSTYYADSVKGRFTISRDNANNTVYLQMNSLKPEDTEVYYCAAEPYFWWQNEYWGQGTQVTVSS | high polyreactivity
35 | QVQLVESGGGLVQAGGSLRLSCAASPNIFHTYGMGWYRQAPWKERELVAAITSDGGTYYADSVKGRFTISRDNAKNTVYLQMNSLNPEDSAVYYCAAYTYYYAIHAYWGQGSQVTVSS | low polyreactivity
36 | QVQLVESGGGLVQAGGSLRLSCADSGFIFTPYTMGWYRQAPGKERELVAAITDGSSTYYADSVKGRFTISRDNAKYTVYLQINSLKPEDTAVYYCNADGKPPYISWLYDYWGQGTQVTVSS | low polyreactivity
37 | QVQIVESWGGLVQAGGSLRLSCDASGSIFTNANGWYRQAPGKERELVAAISSSGGSTYYADSVKGRFTISRDNAKNTVYLQMNSLKPEDTAVYYCAADHYGGRDYWGQGTQVTVSS | low polyreactivity
38 | QVQLVETCGGLVHAGGSLRLSCAASGSTFVDNSMGRYRQAPGKERELGADISWSGGSTYYADSVKGRFTNSRDNAKTTVYLQMNSLKPQDTAVYYCAAYRNDYGYWTYVYYTDDYDYWGQGTQVTVSS | low polyreactivity
39 | QVQLVESGGGLVQAGGSLRLSCAASGSNFLYYAIGWYRQAPGKERELVDGIRRGGRTNYADSVKGRFTISRDNAKNTVYLQMNSLKPEDTAVYYCAKGGYWGQGTQVTVSS | high polyreactivity
40 | QVQLVESGGGLVQAGGSLRLSCAASGRIFRDYTMGWYRTAPGKERELVAAITSGGSTYYADSVKGRFTISRDTAKNTVYLQMNSLKPEDTAVYYCNADGYVPGVDYWGLGTQVTVSS | low polyreactivity
41 | QVQLVESGGGLVQAGGSLRLSCAASGSTSDYYAMGWYRQAPGKERELVAAISWSGGSTYYADSVKGRFTISRDNAKNTVYLQMISLKPEDNAVYYCAAQHYNFSGPFEYWGQGTQVTVSS | low polyreactivity
42 | QVQLVESGGGLVQAGGSLRLSCAASGSIFRTNAMGWYRQAPGKERELVAAISQRGGSTYYADSVKGRFTISRDNAKNTVYLQMNSLKPEDTAVYYCAAPYTQKRGYDYWGQGTLVTVSS | high polyreactivity
43 | QVHLVDSGGGLVQAGGSLRLSCAASGFTYYAMGWYRQAPGKERELVAAITRSGGSTYYADSVKGRFTISRDNAKNSVYLQMKSLKPEDTAVYYCAASGKALKYTARYGSWGQGTQVNVSS | high polyreactivity
